Measurements from patent US20220119534A1 (DRAGONFLY THERAPEUTICS, published 2022).
Residue numbers refer to the chain shown, from its start. Names and notes keep the numbering of the source. Values joined by “and” are separate entries in the source; they are usually repeats but may differ in a detail not shown here. Equal entries are not always repeated. Values belong to the binder of their own block, whether it stands above or below them.

Experiments:
Human CLEC12A-His [1] = target: T1, Human CLEC12A-His (human, UniProt Q5QGZ9 65-265); assay: SPR Biacore 8K 37 C; TriNKET captured on anti-hFc chip, hCLEC12A-His as analyte; 1:1 fit; control sample, n=2
T1 construct: Recombinant soluble protein made in house (Dragonfly Tx); The hCLEC12A spot of the HuProt array is written under this molecule as well; also called hCLEC12A-His; hCLEC12A; not shown: His tag
T1 sequence: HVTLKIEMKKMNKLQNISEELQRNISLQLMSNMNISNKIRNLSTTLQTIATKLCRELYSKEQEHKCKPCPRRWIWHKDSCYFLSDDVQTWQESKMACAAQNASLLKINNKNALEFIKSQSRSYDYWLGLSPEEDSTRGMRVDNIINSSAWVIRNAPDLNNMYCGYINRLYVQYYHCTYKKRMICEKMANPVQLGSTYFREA

[2] = target: T2, Human CD16a V158 (FcγRIIIa V158) (human, UniProt P08637 17-208, biotinylated (site not stated)); assay: SPR; biotinylated CD16a V158 captured on SA chip, TriNKET as analyte; 1:1 kinetic fit; after 4 wks 40 C in phosphate/citrate/NaCl pH 7.8
T2 construct: V158 is the allele name in mature numbering; also called hCD16aV; hCD16a V158
T2 sequence (P08637 17-208 F176V limits assumed): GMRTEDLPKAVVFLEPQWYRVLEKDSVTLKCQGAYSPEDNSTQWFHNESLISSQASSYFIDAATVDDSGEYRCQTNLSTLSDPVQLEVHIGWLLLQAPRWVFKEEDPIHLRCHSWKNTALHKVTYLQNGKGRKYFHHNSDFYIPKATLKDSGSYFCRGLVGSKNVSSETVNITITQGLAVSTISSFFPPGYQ

[3] = target: T3, mFc-hNKG2D (recombinant mFc-tagged human NKG2D dimer) (human, UniProt P26718 73-216); assay: SPR; control sample
T3 construct: extracellular domain; Made in house; not shown: mouse Fc tag
T3 sequence (looked up): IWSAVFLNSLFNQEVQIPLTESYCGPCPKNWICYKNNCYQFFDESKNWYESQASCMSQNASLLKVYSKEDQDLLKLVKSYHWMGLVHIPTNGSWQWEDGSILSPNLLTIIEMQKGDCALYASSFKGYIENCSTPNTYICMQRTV

[4] = target: T4, Human CD16a V158 (FcγRIIIa V158) (human, UniProt P08637 17-208, biotinylated); assay: SPR; control sample
T4 construct: Bought recombinant receptor; also called hCD16aV; hFcγRIIIa V158
T4 sequence (P08637 17-208 F176V limits assumed): as the sequence (P08637 17-208 F176V limits assumed) above

[5] = target: T5, De-sialylated human CLEC12A (human, UniProt Q5QGZ9 65-265, treated with neuraminidase (terminal sialic acids removed)); assay: SPR, two-state fit (ka1)
T5 construct: Same recombinant antigen as m2 after neuraminidase; also called De-sialylated CLEC12A
T5 sequence: T1 sequence

[6] = target: T6, De-glycosylated human CLEC12A (human, UniProt Q5QGZ9 65-265, treated with PNGaseF (N-linked glycans removed)); assay: SPR, two-state fit (ka1)
T6 construct: Same recombinant antigen as m2 after PNGaseF; also called De-glycosylated CLEC12A
T6 sequence: T1 sequence

Human CD32b = target: T7, Human CD32b (human, UniProt P31994 46-217, limits assumed, biotinylated); assay: SPR, steady state fit
T7 construct: Bought recombinant receptor; also called hFcγRIIb
T7 sequence (looked up): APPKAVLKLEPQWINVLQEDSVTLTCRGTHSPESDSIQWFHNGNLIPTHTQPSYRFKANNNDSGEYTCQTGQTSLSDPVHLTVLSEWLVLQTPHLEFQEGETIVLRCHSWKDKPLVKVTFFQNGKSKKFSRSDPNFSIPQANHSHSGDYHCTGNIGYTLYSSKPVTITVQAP

Human CLEC12A-His [7] = target: T8, Human CLEC12A-His (human, UniProt Q5QGZ9 65-265); assay: SPR; control sample (pH 5 stress study)
T8 construct: Recombinant soluble protein made in house; also called hCLEC12A-His; hCLEC12A; not shown: His tag
T8 sequence: T1 sequence

mFc-hNKG2D [8] = target: T9, mFc-hNKG2D (human, UniProt P26718 73-216); assay: SPR; control sample (pH 5 stress study)
T9 construct: extracellular domain; Recombinant mFc-tagged NKG2D dimer, made in house; also called human NKG2D; not shown: mouse Fc tag
T9 sequence (looked up): T3 sequence (looked up)

Human CD16a V158 [9] = target: T10, Human CD16a V158 (human, UniProt P08637 17-208, biotinylated); assay: SPR; control sample (pH 5 stress study)
T10 construct: Bought recombinant receptor; also called hCD16a (V158); hFcγRIIIa V158
T10 sequence (P08637 17-208 F176V limits assumed): as the sequence (P08637 17-208 F176V limits assumed) above

Human CLEC12A-His [10] = target: T8, Human CLEC12A-His; assay: SPR; control sample (low pH hold study)
mFc-hNKG2D [11] = target: T9, mFc-hNKG2D; assay: SPR; control sample (low pH hold study)
Human CD16a V158 [12] = target: T10, Human CD16a V158; assay: SPR; control sample (low pH hold study)
Human CD64 = target: T11, Human CD64 (human, UniProt P12314 16-288, biotinylated); assay: SPR, human CD64 captured; average for AB0192
T11 construct: Bought recombinant receptor; also called hFcγRI; Human CD64 (FcγRI)
T11 sequence (P12314 16-288 limits assumed): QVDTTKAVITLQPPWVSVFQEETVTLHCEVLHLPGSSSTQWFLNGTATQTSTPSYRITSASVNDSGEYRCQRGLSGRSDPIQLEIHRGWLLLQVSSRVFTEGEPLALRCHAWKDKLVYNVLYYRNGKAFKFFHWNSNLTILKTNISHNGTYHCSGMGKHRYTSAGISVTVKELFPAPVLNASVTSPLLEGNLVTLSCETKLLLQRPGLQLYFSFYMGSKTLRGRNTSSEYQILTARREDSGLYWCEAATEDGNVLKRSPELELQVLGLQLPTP

[13] = target: T12, recombinant human CLEC12A-His (human, UniProt Q5QGZ9 65-265); assay: SPR 37C, average
T12 construct: also called hCLEC12A-His; hCLEC12A
T12 sequence: T1 sequence

CD33 = target: T13, CD33; assay: SPR specificity test; unrelated recombinant antigen at up to 500 nM
T13 construct: recombinant protein

Kd (Human CLEC12A-His [1]): 0.98 nM
koff (Human CLEC12A-His [1]): 0.000735 s⁻¹
kon (Human CLEC12A-His [1]): 750000 M⁻¹ s⁻¹
Kd [2]: 216 nM
koff [2]: 0.0209 s⁻¹
kon [2]: 96700 M⁻¹ s⁻¹
B1: F3'-1602 TriNKET (bispecific antibody, human IgG1, kappa)
chain: QLQLQESGPGLVKPSETLSLTCTVSGFSLTNYGLHWIRQPPGKCLEWIGVIWSGGKTDYNPSLKSRVTISKDTSKNQFSLKLSSVQAADTAVYYCAKYDYDDSLDYWGQGTLVTVSSGGGGSGGGGSGGGGSGGGGSDIQMTQSPSSLSASVGDRVTITCHASQNINFWLSWYQQKPGKAPKLLIYEASNLHTGVPSRFSGSGSGTRFTLTISSLQPEDIATYYCQQSHSYPLTFGCGTKLEIKGSDKTHTCPPCPAPELLGGPSVFLFPPKPKDTLMISRTPEVTCVVVDVSHEDPEVKFNWYVDGVEVHNAKTKPREEQYNSTYRVVSVLTVLHQDWLNGKEYKCKVSNKALPAPIEKTISKAKGQPREPRVYTLPPCRDELTKNQVSLTCLVKGFYPSDIAVEWESNGQPENNYKTTPPVLVSDGSFTLYSKLTVDKSRWQQGNVFSCSVMHEALHNHYTQKSLSLSPG
heavy: EVQLVESGGGLVKPGGSLRLSCAASGFTFSSYSMNWVRQAPGKGLEWVSSISSSSSYIYYADSVKGRFTISRDNAKNSLYLQMNSLRAEDTAVYYCARGAPIGAAAGWFDPWGQGTLVTVSSASTKGPSVFPLAPSSKSTSGGTAALGCLVKDYFPEPVTVSWNSGALTSGVHTFPAVLQSSGLYSLSSVVTVPSSSLGTQTYICNVNHKPSNTKVDKKVEPKSCDKTHTCPPCPAPELLGGPSVFLFPPKPKDTLMISRTPEVTCVVVDVSHEDPEVKFNWYVDGVEVHNAKTKPREEQYNSTYRVVSVLTVLHQDWLNGKEYKCKVSNKALPAPIEKTISKAKGQPREPQVCTLPPSRDELTENQVSLTCLVKGFYPSDIAVEWESNGQPENNYKTTPPVLDSDGSFFLYSWLTVDKSRWQQGNVFSCSVMHEALHNHYTQKSLSLSPG
light: DIQMTQSPSSVSASVGDRVTITCRASQGISSWLAWYQQKPGKAPKLLIYAASSLQSGVPSRFSGSGSGTDFTLTISSLQPEDFATYYCQQGVSFPRTFGGGTKVEIKRTVAAPSVFIFPPSDEQLKSGTASVVCLLNNFYPREAKVQWKVDNALQSGNSQESVTEQDSKDSTYSLSSTLTLSKADYEKHKVYACEVTHQGLSSPVTKSFNRGEC
notes: Trispecific F3' format: CLEC12A scFv-Fc paired with NKG2D Fab-Fc; Stressed and control samples of the stability studies are the same molecule; also called AB0237

Kd [3]: 797 nM
koff [3]: 0.135 s⁻¹
kon [3]: 169000 M⁻¹ s⁻¹
Kd [4]: 322 nM
koff [4]: 0.0278 s⁻¹
kon [4]: 86400 M⁻¹ s⁻¹
kon [5]: 2.09e+07 M⁻¹ s⁻¹
kon [6]: 8.96e+06 M⁻¹ s⁻¹
B2: AB0089 TriNKET (bispecific antibody, human IgG1, kappa)
chain: B1 chain with S53V, K56A, K71V, Y98G, D101G, S103T, R207D, I220F
heavy: B1 heavy
light: B1 light
notes: F3' format heterodimer of three chains; human IgG1 Fc with EW-RVT and Y349C/S354C mutations; also called AB0089 Lot AB0089-002; CLEC12A TriNKET AB0089

Kd (Human CD32b): 6.5 µM and 5.6 µM and 5.2 µM and 7 µM
Kd (Human CLEC12A-His [7]): 1.68 nM
koff (Human CLEC12A-His [7]): 0.00129 s⁻¹
kon (Human CLEC12A-His [7]): 771000 M⁻¹ s⁻¹
Kd (mFc-hNKG2D [8]): 588 nM
koff (mFc-hNKG2D [8]): 0.122 s⁻¹
kon (mFc-hNKG2D [8]): 208000 M⁻¹ s⁻¹
Kd (Human CD16a V158 [9]): 171 nM
koff (Human CD16a V158 [9]): 0.0199 s⁻¹
kon (Human CD16a V158 [9]): 117000 M⁻¹ s⁻¹
Kd (Human CLEC12A-His [10]): 1.83 nM
koff (Human CLEC12A-His [10]): 0.00125 s⁻¹
kon (Human CLEC12A-His [10]): 685000 M⁻¹ s⁻¹
Kd (mFc-hNKG2D [11]): 779 nM
koff (mFc-hNKG2D [11]): 0.146 s⁻¹
kon (mFc-hNKG2D [11]): 188000 M⁻¹ s⁻¹
Kd (Human CD16a V158 [12]): 178 nM
koff (Human CD16a V158 [12]): 0.0199 s⁻¹
kon (Human CD16a V158 [12]): 112000 M⁻¹ s⁻¹
Kd (Human CD64): 5.2 nM
koff (Human CD64): 0.00025 s⁻¹
kon (Human CD64): 48000 M⁻¹ s⁻¹
B3: AB0192 TriNKET (other)
chain: EVQLVESGGGVVQPGGSLRLSCAASGFTFNAFGMHWVRQAPGKCLEWVAFISSGSTSIYYANTVKGRFTISRDNSKNTLYLQMNSLRAEDTAVYYCARDGYPTGGAMDYWGQGTSVTVSSGGGGSGGGGSGGGGSGGGGSDIQMTQSPSSLSASVGDRVTITCKASQDIYNYLSWFQQKPGKAPKPLIYRANILVSGVPSRFSGSGSGQDYTFTISSLQPEDIATYYCLQFDAFPFTFGCGTKLEIKGSDKTHTCPPCPAPELLGGPSVFLFPPKPKDTLMISRTPEVTCVVVDVSHEDPEVKFNWYVDGVEVHNAKTKPREEQYNSTYRVVSVLTVLHQDWLNGKEYKCKVSNKALPAPIEKTISKAKGQPREPRVYTLPPCRDELTKNQVSLTCLVKGFYPSDIAVEWESNGQPENNYKTTPPVLVSDGSFTLYSKLTVDKSRWQQGNVFSCSVMHEALHNHYTQKSLSLSPG
heavy: B1 heavy
light: B1 light
notes: the condition stands under assay; also called AB0192 Lot AB0192-005

Kd [13]: 0.59 nM
koff [13]: 0.000494 s⁻¹
kon [13]: 844000 M⁻¹ s⁻¹
Response (RU) (CD33): 0.2 RU
B4: F3'-1602 TriNKET (other)
chain: B1 chain
heavy: B1 heavy
light: B1 light
notes: CLEC12A scFv-Fc, NKG2D A49MI Fab-Fc, human IgG1 Fc; also called AB0237
